This series is described as follows: soluble on expression in E. coli; label from the status in PepcDB or PDB records.
Consider “MSRVKNVVELLETKGVDALYLTKKTNVNYISGFPDEEAYAVICKDGNFLVTDSRYMELAEKVCKDFEIINWHNFDRSVAKAVKSVCDKVGIKKLGFERTNIVFDKYEELKNLIEKDNGELIPTENIVETLRYVKDKDEIKNTRKACEIADKALEELIPHIKAGVSEIELATKLEYFMKMNGAQNIGFETILISGAKTSLLHGKPSDKIIEKGDFVLIDYGAMYNGYISDTTRTFIVGGASEKQLEIYNLVKEAQNVGVENMKAGVHATIPDAEIRKVVKKYEDYYYQGIGHGVGRDVHEEPFIGNYGDKIIEEGCIITMEPGIYFPGWGGVRIEDTVLITKNGPERLTKFPKDLMILDK”, for which the “soluble on expression in E. coli” value is given as “not soluble”.

Regarding “MGSDKIHHHHHHMSVPQRPHQFVLTLSCPSAAGQVAAVVGLLDRHRCYVDELTVFDDDLSARFFVRCVFHATDDADALRVDALRREFEPIAERFRMQWAIHDVAARPKVLIMVSKLEHCLADLLFRWKMGELKMDIVGIVSNHPDFAPLAAQHGLPFRHFPITADTKAQQEAQWLDVFETSGAELVILARYMQVLSPEASARLANRAINIHHSFLPGFKGAKPYHQAHARGVKLIGATAHFVTDDLDEGPIIEQVVERVDHSYRPEQLLAVGRDVECITLARAVKAFIERRVFLNGDRTVVFQ”, the “soluble on expression in E. coli” value is “not soluble”. Then “MSLRGGAQALECYSCVQKADDGCSPNKMKTVKCAPGVDVCTEAVGAVETIHGQFSMAVRGCGSGLPGKNDRGLDLHGLLAFIQLQQCAQDRCNAKLNLTSRALDPAGNESAYPPNGVECYSCVGLSREACQGTSPPVVSCYNASDHVYKGCFDGNVTLTAANVTVSLPVRGCVQDEFCTRDGVTGPGFTMSGSCCQGSRCNSDLRNKTYFSPREGHHHHHH”, with “not soluble”; and “MLNPNKWLDVKKMLPRLAQKQWYAKTRYGYARGGETVHFVQNVRRYYDILTWVTQPLEHHHHHH”, with “not soluble”; and “SNAMANIKIRQETPTAFYIKVHDTDNVAIIVNDNGLKAGTRFPDGLELIEHIPQGHKVALLDIPANGEIIRYGEVIGYAVRAIPRGSWIDESMVVLPEA”, with “soluble”.

Turning to “MSSQDVLIHSDDPCHPANLICTLCKQFFHNNWCTGTGGGISIKDPNTNYYYLAPSGVQKEKMIPEDLFVMDAQTLEYLRSPKLYKPSACTPLFLACYQKKNAGAIIHTHSQNAVICSLLFGDEFRIANIEQIKAIPSGKVDPVTKKPMALSFFDTLKIPIIENMAHEDELIDDLHKTFKDYPDTCAVIVRRHGIFVWGPTIDKAKIFNEAIDYLMELAIKMYQMGIPPDCGIGEEKKHLKMASP”, the “soluble on expression in E. coli” value was “soluble”. Then “MGSDKIHHHHHHMVKFIHCSDLHLDSPFKSKSHISPKIFEDVQKSAYESFKNIVDIALQQDVDFVIIAGDLFDSENRTLRAEIFLKQQFERLQNEQIFVYVCHGNHDPLSSKISSNWPDNVSVFSNKVETYEAITKSGETIYIHGFSYENRASYENKIDEYPSSQGQKGIHIGVLHGTYSKSSVNERYTEFILEDLNSKLYHYWALGHIHERQQLSDMPVINYSGNIQGRHFNEQGEKGCLLIEGDHLKLKTKFYPTQYIRFEEATIETDKTSKQGLYEVIQNFKEQVREEGKAFYRLTLVINSETLISPQDLLQVEEMITDYEENENQFVYIDELKIQYAQNDESPLVNEFSAELLVDQTVFDKAMSDLYLNPRASKFLDDYGTFDHTALVNRAEEILKAEMRGEQNDN”, with “not soluble”; and “MAPIRRSSRLAERYDAIESKKRSLKRLEEQIKAEEEQFSDKMKQLEDEIKIKEQVITMFKRKTVRREWMRNSRQATTNINIAQIESLKLQLEEGEKDIAEAEKQAEPTTPQQEAELSETFKQMVRDRMKVKDVDEKLLQQYMKKENVEFEWRSCFICTMEYSRTDKNLHPIILNCGHNLCRSCINKLTGNGIVKCPFDRLDTRVRVTGLPRNLALINL”, with “not soluble”. As to “MFQIIMTSTPKYSIILPTYNEKENLPICIWLIENYLKEVSHEVIIVDDASPDGTQGIAKLLQKEYGDDKILIKPRVGKLGLGTAYSHGLSFARGEFIILMDADLSHHPKFIPEMIALQHKYKLDIVTGTRYKDGGGVSGWDLKRKTISKGANFLAQFLLNPGVSDLTGSFRLYKRDILSKLIAESVSKGYVFQMEMMFRAKKSGYRIGEVPISFVDRFFGESKLGSQEIVDYAKGLLYLFAFVW”, the “soluble on expression in E. coli” value is listed as “not soluble”. Then “MSAAPLVRAVRWYQRVLSPRKPAPTCRFSPTCSEYAAQALDRHGALKGGWLALWRVLRCNPLVPGGFDPV”, with “soluble”; and “MPEFIIVEGNNDLGEFFQIDGELFSDNELLENLKKWREWEVPVIIDDWCNRILNEDETEILYFPTHEDKMNYIRVEKDLEPLYHTSNKIYATISKSEWLELLN”, with “not soluble”. As to “MSTDPTPPQLTRRTAKVSIDNQTGSHFKFQVTHKYTGWDADKSDVVMFQPDEVKEIFKSVAYNTGFLTTGVDNWLVDGTMVQERTEVDNKGHQIGKKSYIEHAKFISDSRSWKQHMLTAEDDGKTTTIRVFPTEIHFISPSGESTTTFTKY”, the “soluble on expression in E. coli” value is listed as “not soluble”. Then “MFGRHSIIPNNQIGTASASAGEDHVSASATSGHIPYDDMEEIPHPDSIYGAASDLIPDGSQLVAHRSDGSELLVSRPPEGANQLTISFRGQVYVFDAVGADKVDAVLSLLGGSTELAPGPQVMELAQQQNHMPVVEYQSRCSLPQRAQSLDRFRKKRNARCFEKKVRYGVRQEVALRMARNKGQFTSSKMTDGAYNSGTDQDSAQDDAHPEISCTHCGISSKCTPMMRRGPSGPRTLCNACGLFWANRGTLRDLSKKTEENQLALMKPDDGGSVADAANNLNTEAASVEEHTSMVSLANGDNSNLLGDH”, with “soluble”. Then “MQTYIETSRLILRDWKEEDIPAFARMNADPHVMEFFLHPLTPEESLAFYHRIQNEFQTCGFGLYAVERKEDHAFMGYTGLHQITFDVDFAPGIEIGWRLAHEYWGRGYAPEAATACLEYARKSLDIKELFSFTSLPNQRSERVMQKIGMERVREFGHPLVPAEHPLHRHVLYYIDLRKHSS”, with “not soluble”; and “MSFSQAVSGLNAAATNLDVIGNNIANSATYGFKSGTASFADMFAGSKVGLGVKVAGITQDFTDGTTTNTGRGLDVAISQNGFFRLVDSNGSVFYSRNGQFKLDENRNLVNMQGMQLTGYPATGTPPTIQQGANPAPITIPNTLMAAKSTTTASMQINLNSTDPVPSKTPFSVSDADSYNKKGTVTVYDSQGNAHDMNVYFVKTKDNEWAVYTHDSSDPAATAPTTASTTLKFNENGILESGGTVNITTGTINGATAATFSLSFLNSMQQNTGANNIVATNQNGYKPGDLVSYQINNDGTVVGNYSNEQEQVLGQIVLANFANNEGLASQGDNVWAATQASGVALLGTAGSGNFGKLTNGALEASNVDLSKELVNMIVAQRNYQSNAQTIKTQDQILNTLVNLR”, with “not soluble”.

In the case of “MYKHILVPVDLNEQGFADKAVQLAVWHAKHSNAEIHLLNVLPGIHMSMVATYFPKDAAAQMKNDVRAQLKAFAEKHIAEEVVYKLHIAEGKPYATILDYAERLGADLIVMPSHKRSRIDKVMLGSVASKVVENSPINVMVVKPQG”, the “soluble on expression in E. coli” value is reported as “not soluble”. For “GMTAVFRNTVLVRFKHCDAAGIVFYPRYFEMLNDFIEDWFAQALDWPFDAMHGAGQAGVPTADLHCRFVAPSRLGETLTRELRVVKLGQSSFTVQVRFMGPDSGLRLEVTQRLVCVDTDKIAPRPLPDPVRQAMATYVDETLAATGSPGL”, the “soluble on expression in E. coli” value is given as “soluble”.

As to “MRTISFFNNKGGVGKTTLSTNVAHYFALQGKRVLYVDCDPQCNATQLMLTEEQTESIYLDGLNDEVAERNSLAKTVYAIFVPLREGESQIAAEITPMRSERFGVDVLPGHPALSQIEDLMSDSWQSALGRQTGPFRRIHWAGQLAHAMERDDRYDVIFFDVGPSLGPFNRTVLLGCDAFVTPTATDLFSFHAFGNLARWFDAWVTQYAEIHEGNMAEWKKYSADVEAKTRPLRLGGFDGEGLRYLGYTTLEYVKRRANGQEQLVGAFERFRGRFAAEAERISNSLSKHSNSTLLGHVPHMHSMPATAQDVHAPIMELSSSDRVRGAQINQRNAYAEKINSVAANVYKALFPNELEHHHHHH”, the “soluble on expression in E. coli” value is “soluble”. Then “YTEEFDPSKYGMADSYDEQGNYIFPEGFDPETNEWLEGFDEQRQAWEARYAESERRFQLHTVQIEKNRVAAAEAAAAGEATNYSSESAEAAPAAANTEAEGGSLASDEQLAALREKLAGN”, with “not soluble”; and “HAEVIASGRLEKCVVDGVTEELDCQEKVVVTLTVGNGQSLQTEALEFSLSCLNSPDGRCPCSCSAADPTCACRDLAAPLRVSLTKSPLWASYPLQYLSSFNWKPLEVILRPSNKVCKDGDWEDSPTCGWFSQGGVRVADSQGFCCECSSSQVWDDTFGSSKERTRANLDCDFWSDPLDILIGRKPVSAHCLTFDPQWYSGYELGAASLQFEIAITVEVPTAPSPTTATTSATPRTNNSSSANSTNSTNSPAPQFLSPPAPSTREVLHLGPSVPLASSASRLLSAKLLGDLAMYTQLPAISNQVLMVPQPPAAAAATGSPLDATLATNRSAWMLLDKTMLSMDGLACDKVGTGFSAFRYQPSGCGRAPQACLSGQLKDLWEADLARIADGRVPLYMITRFTGGSDTTLQSFSGGPLSFALPVTSHSQSLVTLSVAADGVRLVTNRSPGKITGAAVCRFAGTSCGGFEAVAARGYIYVNITNTGRLDSDYTLTVSNCSSNVRPIEARTLAVRAGSAASLDPPMELYVEDQAAAAARTCTVSLYDSVGAVTDSLTLSFYTNATQLVVKPSGGYNGTGDGAGVKRNGTDCSTACTNPIDVLCFVTKKCWSKFGR”, with “not soluble”; and “MGSDKIHHHHHHVGTVNVRSGRMRYFTNRDAPLDVEHVMAPAAFPPGFPAVRLEAESYWDGGIYSNTPLEAVLDDRPRRDSVIFSVQLWPSSGPEPESILQVMSRQRDIQYSSRAESHLDRQKQIHRLRHVIRELGQHLPEEQRNAPAVRELLDWGCGTTMQVLELDAPAFDNDDLNRDIDFSSAGIERRWRAGYEDTARLLKLAPWRETLDPMEGISVFRMASAESRK”, with “not soluble”. Then “MGSDKIHHHHHHMTIDNQTGLVLEGGGMRGVFTCGVLDYLMDHDIRFPYTIGVSAGACNGLSYMSRQRGRAKYSNIDLLEKYHYIGLKHLLKKRNILDFDLLFTEFPEHILPYDYQAYFDSPERYVMVTTNCLTGEADYFEEKKDKNRVIDIVRASSSLPFVCPIAYVDGIPMLDGGIVDSIPLQRAIHDGYRNNVVVLTRNRGYRKENKDIRIPPFVYRKYPKMREALSRRCAAYNAQLEMVERMEEEGDILVIRPQKPVVVDRIERDIQKLTDLYEEGYECAKRQFEVL”, with “not soluble”. Then “MTDSTIRIAIVGAGGRMGRQLIQAVTQMEGVVLGAAIERKGSTLVGSDAGELAGVGLLNVIVGDDLSQLTDNFDVLIDFTRPEGTLEHLAICRQHRKAMVIGTTGFDEAGKAAISEAAADIGIVFAANFSVGVNVVLKLLEKAAKVMGDYTDIEIIEAHHRHKVDAPSGTALAMGEAIADAMGRSLKDCAVYSREGYTGERKPGTIGFATVRAGDIVGEHTAMFADIGERVEITHKATSRMTFAHGAVKSAIWLGKHDNGLFDMRDVLNLNEL”, with “soluble”; and “MAHHHHHHMKPYVWPTSDEAPPPSGRRTFPRQFQVNHGTLNLFSPAVPESQQCNTRAAAGSFSITGQRGILHQRNHNKESTATREFPVNGLRRVSAPQRSETPHGIRHIRDAAGAQQHVQVVNITDAYKDPMQMGPRRTGVKCLPQKSESDDVSVALSFAGSRQQLSARVLAAPVGKPSRPSLYPIDYSDQERFAQAVRDHAQKRTRGLAEFYVQLVRDTVGSVTSSTPKPAIVPWSLDQEPTRRVLTLGRCRDQLVALTAMPISLSDLALLLWGAGNGEVANSDSLTSDCDKDASLPLNCRPVPFCDFAAAFGQNSSDVRLARMKV”, with “not soluble”.

The record behind these values is the DeepSol protein solubility set.
